This note sets out measurements from ChEMBL document CHEMBL1124124, “Synthesis and interaction with uridine phosphorylase of 5'-deoxy-4',5-difluorouridine, a new prodrug of 5-fluorouracil” (J Med Chem, 1988).

Series [1] is described as follows: Kinetic constant for interaction with Urd phosphorylase from Lewis lung carcinoma.
Series [2] addresses Uridine phosphorylase 1 (Mus musculus) (UniProt P52624). The series is described as above. As to conditions: mouse.

Sequence of Uridine phosphorylase 1 (Mus musculus) (P52624 whole entry, looked up): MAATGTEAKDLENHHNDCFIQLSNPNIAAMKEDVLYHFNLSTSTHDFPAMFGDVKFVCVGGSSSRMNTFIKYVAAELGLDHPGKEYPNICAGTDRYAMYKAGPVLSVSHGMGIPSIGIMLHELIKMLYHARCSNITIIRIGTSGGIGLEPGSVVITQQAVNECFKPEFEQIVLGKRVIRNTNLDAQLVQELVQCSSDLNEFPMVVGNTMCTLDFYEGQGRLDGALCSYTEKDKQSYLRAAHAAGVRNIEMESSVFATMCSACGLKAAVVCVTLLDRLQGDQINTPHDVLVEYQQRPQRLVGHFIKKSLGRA

B1: Uridine phosphorylase 1 (Homo sapiens), Q16831 (protein)
chain: MAATGANAEKAESHNDCPVRLLNPNIAKMKEDILYHFNLTTSRHNFPALFGDVKFVCVGGSPSRMKAFIRCVGAELGLDCPGRDYPNICAGTDRYAMYKVGPVLSVSHGMGIPSISIMLHELIKLLYYARCSNVTIIRIGTSGGIGLEPGTVVITEQAVDTCFKAEFEQIVLGKRVIRKTDLNKKLVQELLLCSAELSEFTTVVGNTMCTLDFYEGQGRLDGALCSYTEKDKQAYLEAAYAAGVRNIEMESSVFAAMCSACGLQAAVVCVTLLNRLEGDQISSPRNVLSEYQQRPQRLVSYFIKKKLSKA
One may read the Km as the concentration of substrate that gives half-maximal velocity. As for B1, the figures for the Km in series [1] and in series [2] were 0.6 mM and 6 mM, respectively.
